Source: patent publication US20190322762A1 (DEVELOPMENT CENTER FOR BIOTECHNOLOGY, published 2019)
Residue numbers refer to the chain shown, from its start.

How the values were obtained:
human ENO1 protein [1] = target: T1, human ENO1 protein (human, UniProt P06733 1-434); assay: ELISA, human ENO1 coated on the plate; upper plateau of the four parameter logistic fit
T1 construct: Purified human ENO1 protein coated on ELISA plates or injected as SPR analyte; also called alpha-enolase; enolase-1
Procedure: (§1) To determine the binding activity of each mutant antibody, 400 ng/100 μL of human ENO1 protein was coated on a 96-well ELISA overnight at 4° C. and the plate further was washed by PBS. The plate was blocked with 1% BSA (w/v) in PBS at room temperature for 1 hour, then washed again with 1×PBS. EN10.4, EN10.5, and humEN10 mAb antibodies were 2-fold serial diluted to 15 different concentrations and added to the plate at 37° C. for 1 hour. After the reaction was complete, the plate was washed 3 times with 1×PBS. A 1/8000 dilution of goat anti-human-HRP antibody was added and incubated at 37° C. for 1 hour, and then the plate washed 3 times with 1×PBS. The TMB substrate was added and reacted at room temperature for 30 minutes. The reaction was stopped by adding 1N HCl, and OD 450 was read to determine the activity. Every study was repeated three times. Data are presented as mean±SD. OD readings and concentrations of antibody were used to make a multiple scatter figure by Sigmaplot. The KD values were predicted by four parameter logistic fit.
(§2) There is no significant affinity difference among three different editions of hum EN10 mAb antibodies. […] Due to the structure similarity between cysteine and serine, EN10.5 is chosen to generate antibody production cell lines.

human ENO1 protein [2] = target: T1, human ENO1 protein; assay: SPR, BIAcore 2000, antibody on the chip, ENO1 0.3125 nM to 40 nM as analyte, 25 degree C
From the text: (§3) To know the binding kinetics difference among individual antibodies, surface plasmon resonance (SPR) measurement with a BIAcore 2000 (BIAcore. Inc., Piscataway, N.J.) was used as previously described (Karlsson & Falt, (1997) J. Immunol Methods 200:121-133). Carboxymethylated dextran biosensor chips (CM5, BIAcore Inc.) were activated with N-ethyl-N′-(3-dimethylaminopropyl)-carbodiimide hydrochloride (EDC) and N-hydroxysu-ccinimide (NHS) according to the supplier's instructions. Chimera EN10 mAb was diluted with 10 mM sodium acetate, pH 4.8, into 5 microgram/ml before injection at a flow rate of 20 micro L/minute to achieve approximately 100 response units (RU) of coupled protein followed by the injection of 1M ethanolamine to block unreacted groups. For kinetics measurements, two-fold serial dilutions of ENO1 (0.3125 nM to 40 nM) were injected in HBS-P Biacore running buffer provided by the manufacturer (BIAcore, Inc., Piscataway, N.J.) at 25 degree C. at a flow rate of 25 microL/min. and binding responses on the EN10 mAb were corrected by subtraction of responses on a blank flow cell. Association rates (kon or ka) and dissociation rates (koff or kd) were calculated using a simple one-to-one Langmuir binding model with separate fittings of kon and koff was used. (BIAcore™ Evaluation Software version 3.2).

human ENO1 protein [3] = target: T1, human ENO1 protein; assay: ELISA, 400 ng/100 µL human ENO1 coated, antibody in 15 two-fold dilutions, four parameter logistic fit
Procedure: as §1, §2

human ENO1 protein [4] = target: T1, human ENO1 protein; assay: told with the SPR results of FIG. 7B
From the text: as §3

human ENO1 protein [5] = target: T1, human ENO1 protein; assay: ENO1 binding ELISA
[6] = target: T2, ENO1 mutant R327 to alanine (human, UniProt P06733 1-434); assay: ELISA, ENO1 mutant A327 coated, EN10.5 mAb titrated
T2 construct: Expressed in E. coli and purified on Ni-agarose
T2 sequence (P06733 other isoform, or with tags, fused parts or gaps mutant limits assumed): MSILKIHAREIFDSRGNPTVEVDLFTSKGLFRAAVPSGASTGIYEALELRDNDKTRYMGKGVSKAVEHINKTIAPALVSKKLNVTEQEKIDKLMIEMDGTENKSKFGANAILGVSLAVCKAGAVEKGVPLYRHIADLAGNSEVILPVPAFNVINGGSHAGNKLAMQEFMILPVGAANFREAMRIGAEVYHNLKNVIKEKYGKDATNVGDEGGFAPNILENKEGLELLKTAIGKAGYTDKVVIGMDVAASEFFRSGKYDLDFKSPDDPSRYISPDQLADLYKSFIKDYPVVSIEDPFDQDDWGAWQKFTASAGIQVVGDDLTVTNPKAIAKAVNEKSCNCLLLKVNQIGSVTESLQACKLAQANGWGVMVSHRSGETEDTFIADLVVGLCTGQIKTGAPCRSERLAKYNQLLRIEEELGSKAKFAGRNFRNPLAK
Procedure: (§4) To determine the binding activity of each mutant protein, 400 ng/100 μL of human ENO1 protein or mutated ENO1 protein was coated on a 96-well ELISA plate and incubated overnight at 4° C. and the plate was washed with PBS. The plate was blocked with 1% BSA (w/v) in PBS at room temperature for 1 hour, then washed again with 1×PBS. A primary antibody (EN10.5 mAb) was 2-fold serial diluted to 15 different concentrations and added to the plate at 37° C. for 1 hour. After the reaction was done, the plate was washed 3 times with 1×PBS. A 1/8000 dilution of goat anti-mouse-HRP antibody was added and incubated at 37° C. for 1 hour, then the plate was washed 3 times with 1×PBS. Then, TMB substrate was added and the reaction was allowed to proceed at room temperature for 30 minutes. The reaction was stopped by adding 1N HCl and OD450 was read to determine the activity. Each study was repeated three times. Data are presented as mean±SD. OD readings and concentrations of antibody were used to make a multiple scatter plot using Sigmaplot™. The KD values were predicted by four parameter logistic fit.
(§5) Thus, the crystal structure of ENO1 was downloaded from protein data bank (pdb-entry: 2PSN) to analyze residue positions from this region. […] Every purified ENO1 mutant protein was analyzed for any KD changes by ENO1 binding in ELISA. […]

[7] = target: T3, ENO1 mutant S310 to alanine (human, UniProt P06733 1-434); assay: ELISA, ENO1 mutant A310 coated, EN10.5 mAb titrated, four parameter logistic fit
T3 construct: Expressed in E. coli and purified on Ni-agarose
T3 sequence (P06733 other isoform, or with tags, fused parts or gaps mutant limits assumed): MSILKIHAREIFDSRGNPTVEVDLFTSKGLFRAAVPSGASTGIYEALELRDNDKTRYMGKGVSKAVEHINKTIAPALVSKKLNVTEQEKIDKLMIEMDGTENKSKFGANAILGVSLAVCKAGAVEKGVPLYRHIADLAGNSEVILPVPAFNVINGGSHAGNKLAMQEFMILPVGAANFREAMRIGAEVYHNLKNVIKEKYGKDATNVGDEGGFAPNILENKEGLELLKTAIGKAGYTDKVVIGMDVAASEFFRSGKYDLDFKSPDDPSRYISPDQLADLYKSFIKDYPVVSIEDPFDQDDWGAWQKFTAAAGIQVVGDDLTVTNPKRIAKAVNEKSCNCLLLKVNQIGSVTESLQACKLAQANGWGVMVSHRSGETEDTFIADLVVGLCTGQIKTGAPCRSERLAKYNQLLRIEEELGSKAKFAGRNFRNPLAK
Procedure: as §4, §5

A333 = target: T4, A333 (human); assay: ELISA, ENO1 mutant A333 coated, EN10.5 mAb titrated, four parameter logistic fit
T4 construct: Sixth mutant of the alanine scan; It is named only on the sheets; the text lists five mutants
Procedure: as §4, §5

[8] = target: T5, ENO1 mutant G312 to alanine (human, UniProt P06733 1-434); assay: ELISA, ENO1 mutant A312 coated, EN10.5 mAb titrated, four parameter logistic fit
T5 construct: Expressed in E. coli and purified on Ni-agarose
T5 sequence (P06733 other isoform, or with tags, fused parts or gaps mutant limits assumed): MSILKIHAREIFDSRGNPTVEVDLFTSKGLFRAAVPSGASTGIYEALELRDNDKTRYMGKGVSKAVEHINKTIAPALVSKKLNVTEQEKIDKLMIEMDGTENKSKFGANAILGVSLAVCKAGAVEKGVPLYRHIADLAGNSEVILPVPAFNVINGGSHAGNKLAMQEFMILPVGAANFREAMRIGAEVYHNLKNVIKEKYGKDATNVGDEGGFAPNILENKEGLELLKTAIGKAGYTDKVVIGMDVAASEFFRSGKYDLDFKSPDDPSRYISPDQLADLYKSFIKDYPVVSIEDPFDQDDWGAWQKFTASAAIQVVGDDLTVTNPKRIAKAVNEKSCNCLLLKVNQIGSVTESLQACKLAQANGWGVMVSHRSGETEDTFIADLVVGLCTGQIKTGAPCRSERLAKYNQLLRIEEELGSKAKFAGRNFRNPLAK
Procedure: as §4, §5

[9] = target: T6, ENO1 mutant Q298 to alanine (human, UniProt P06733 1-434); assay: ELISA, ENO1 mutant A298 coated, EN10.5 mAb titrated, four parameter logistic fit
T6 construct: Expressed in E. coli and purified on Ni-agarose
T6 sequence (P06733 other isoform, or with tags, fused parts or gaps mutant limits assumed): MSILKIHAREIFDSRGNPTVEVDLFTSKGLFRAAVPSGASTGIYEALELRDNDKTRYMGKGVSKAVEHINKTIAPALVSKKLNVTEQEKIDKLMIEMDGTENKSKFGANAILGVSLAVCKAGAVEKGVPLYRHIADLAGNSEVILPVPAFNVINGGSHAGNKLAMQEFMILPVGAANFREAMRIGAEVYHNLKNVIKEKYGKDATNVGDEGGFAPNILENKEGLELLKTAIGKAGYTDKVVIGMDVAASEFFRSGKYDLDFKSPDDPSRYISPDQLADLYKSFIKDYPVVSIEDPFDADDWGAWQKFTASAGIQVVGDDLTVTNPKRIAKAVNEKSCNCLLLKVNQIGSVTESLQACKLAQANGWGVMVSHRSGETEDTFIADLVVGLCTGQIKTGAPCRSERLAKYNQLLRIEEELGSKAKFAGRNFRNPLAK
Procedure: as §4, §5

[10] = target: T7, ENO1 mutant D299 to alanine (human, UniProt P06733 1-434); assay: ELISA, ENO1 mutant A299 coated, EN10.5 mAb titrated, four parameter logistic fit
T7 construct: Expressed in E. coli and purified on Ni-agarose
T7 sequence (P06733 other isoform, or with tags, fused parts or gaps mutant limits assumed): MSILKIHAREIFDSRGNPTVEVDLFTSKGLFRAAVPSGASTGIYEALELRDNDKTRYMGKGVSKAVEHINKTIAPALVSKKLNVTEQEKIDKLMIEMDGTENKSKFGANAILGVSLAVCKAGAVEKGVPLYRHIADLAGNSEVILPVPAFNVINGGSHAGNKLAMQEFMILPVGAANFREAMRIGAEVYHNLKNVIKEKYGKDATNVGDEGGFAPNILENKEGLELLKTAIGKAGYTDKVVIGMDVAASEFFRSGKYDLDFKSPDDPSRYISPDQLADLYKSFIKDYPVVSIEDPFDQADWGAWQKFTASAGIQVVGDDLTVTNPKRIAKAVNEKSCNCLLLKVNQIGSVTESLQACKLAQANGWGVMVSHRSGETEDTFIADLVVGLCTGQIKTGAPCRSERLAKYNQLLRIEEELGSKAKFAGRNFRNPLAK
Procedure: as §4, §5

BSA = target: T8, BSA (Bos taurus, UniProt P02769); assay: ELISA, BSA as background
T8 construct: The sheet prints only 'BSA'; also called bovine serum albumin; BSA background
T8 sequence (P02769 25-607 limits assumed): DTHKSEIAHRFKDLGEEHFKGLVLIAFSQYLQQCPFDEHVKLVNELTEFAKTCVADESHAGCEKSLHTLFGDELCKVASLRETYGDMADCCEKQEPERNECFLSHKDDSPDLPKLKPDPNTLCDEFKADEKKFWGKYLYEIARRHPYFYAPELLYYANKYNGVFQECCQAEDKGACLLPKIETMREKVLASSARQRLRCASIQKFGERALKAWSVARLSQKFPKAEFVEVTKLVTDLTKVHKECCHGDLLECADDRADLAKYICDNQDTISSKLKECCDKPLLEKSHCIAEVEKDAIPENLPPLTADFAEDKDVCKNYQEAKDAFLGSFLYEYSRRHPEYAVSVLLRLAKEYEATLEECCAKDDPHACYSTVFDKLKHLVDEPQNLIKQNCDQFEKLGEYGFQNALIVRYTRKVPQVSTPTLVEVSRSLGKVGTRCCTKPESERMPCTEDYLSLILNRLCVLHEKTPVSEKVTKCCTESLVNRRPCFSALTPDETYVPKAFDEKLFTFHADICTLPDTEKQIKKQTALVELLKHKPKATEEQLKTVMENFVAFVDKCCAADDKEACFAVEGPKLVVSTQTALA

T1 sequence (P06733 whole entry): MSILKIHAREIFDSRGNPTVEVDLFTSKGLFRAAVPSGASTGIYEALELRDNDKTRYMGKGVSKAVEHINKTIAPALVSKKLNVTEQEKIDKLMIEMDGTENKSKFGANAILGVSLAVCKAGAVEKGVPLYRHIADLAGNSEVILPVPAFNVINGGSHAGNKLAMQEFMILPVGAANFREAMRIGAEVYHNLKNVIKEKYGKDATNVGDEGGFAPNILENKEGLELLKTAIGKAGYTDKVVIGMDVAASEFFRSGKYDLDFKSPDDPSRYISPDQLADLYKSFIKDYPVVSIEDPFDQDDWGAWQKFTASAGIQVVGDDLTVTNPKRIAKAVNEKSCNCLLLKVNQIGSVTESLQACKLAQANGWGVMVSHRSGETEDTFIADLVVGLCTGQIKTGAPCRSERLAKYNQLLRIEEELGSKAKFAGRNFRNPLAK

B1: hum EN10 mAb IMGT (antibody, V domains shown)
VH: QVQLVQSGAEVKKPGASVKVSCKASGYTFTSCVMNWVRQAPGQGLEWMGYINPYNDGTKYNEKFKGRVTMTTDTSTSTAYMELRSLRSDDTAVYYCAREGFYYGNFDNWGQGTLVTVSS
VL: DIQMTQSPSSLSASVGDRVTITCRASENIYSYLTWYQQKPGKAPKLLIYNAKTLPEGVPSRFSGSGSGTDFTLTISSLQPEDFATYYCQHHYGTPYTFGQGTKLEIKR
notes: Humanized antibody, human IgG; also called Hum EN10 IMGT; hum ENO10mAb IMGT
Max. (human ENO1 protein [1]): 2.99 O.D 450 nm | Kd (human ENO1 protein [2]): 0.219 nM | Kd (human ENO1 protein [3]): 0.163 nM | Kd (human ENO1 protein [4]): ~0.203 nM | Kd (human ENO1 protein [5]): 0.0365 nM

B2: EN10.4 (antibody, V domains shown)
VH: B1 VH with C32A
VL: B1 VL
notes: same light chain as humEN10 mAb; human IgG from FreeStyle293 cells; also called EN10.4 mAb; alanine mutant of humEN10 mAb antibody
Max. (human ENO1 protein [1]): 2.94 O.D 450 nm | Kd (human ENO1 protein [3]): 0.14 nM

B3: EN10.5 (antibody, V domains shown)
VH: B1 VH with C32S
VL: B1 VL
notes: same light chain as humEN10 mAb; human IgG; also called EN10.5 mAb; mAb EN10.5
Max. (human ENO1 protein [1]): 2.97 O.D 450 nm | binding result [6]: no binding (tested: about 1e-7 M) | Kd [7]: 0.217 nM | Kd (human ENO1 protein [3]): 0.157 nM | Kd (A333): 0.21 nM | Kd [8]: 0.2 nM | Kd [9]: 0.238 nM | Kd [10]: 64.3 nM

B4: EN10 mAb (antibody, V domains shown)
VH: EVQLQQSGPELVKPGASVKMSCKASGYTFTSCVMNWVKQKPGQGLEWIGYINPYNDGTKYNEKFKGKATLTSDKSSSTAYMELSSLTSEDSAVYYCAREGFYYGNFDNWGQGTTLTVSS
VL: DIQMTQSPASLSASVGETVTITCRASENIYSYLTWYQQKQGKSPQLLVYNAKTLPEGVPSRFSGSGSGTQFSLKINSLQPEDFGSYYCQHHYGTPYTFGGGTKLEITR
notes: Mouse monoclonal antibody purified from hybridoma ascites; also called anti-human ENO1 antibody EN10 mAb; EN10 mAb antibody
binding result (BSA): no binding

B5: hum EN10 mAb 4D5 (antibody, V domains shown)
VH: EVQLVESGGGLVQPGGSLRLSCAASGYTFTSCVMNWVRQAPGKGLEWVAYINPYNDGTKYNEKFKGRFTISRDDSKNTLYLQMNSLRAEDTAVYYCAREGFYYGNFDNWGQGTLVTVSS
VL: B1 VL
notes: Humanized antibody, human IgG; also called hum ENO10mAb 4D5; hum EN10 mAb 45D
Kd (human ENO1 protein [2]): 0.5 nM
